Biological target: T1, synthetic TAL effector (RVG-LAMP-2B-NLS-TALE) (Artificial Sequence, UniProt P14727 SEQ:1-766)
T1 chain: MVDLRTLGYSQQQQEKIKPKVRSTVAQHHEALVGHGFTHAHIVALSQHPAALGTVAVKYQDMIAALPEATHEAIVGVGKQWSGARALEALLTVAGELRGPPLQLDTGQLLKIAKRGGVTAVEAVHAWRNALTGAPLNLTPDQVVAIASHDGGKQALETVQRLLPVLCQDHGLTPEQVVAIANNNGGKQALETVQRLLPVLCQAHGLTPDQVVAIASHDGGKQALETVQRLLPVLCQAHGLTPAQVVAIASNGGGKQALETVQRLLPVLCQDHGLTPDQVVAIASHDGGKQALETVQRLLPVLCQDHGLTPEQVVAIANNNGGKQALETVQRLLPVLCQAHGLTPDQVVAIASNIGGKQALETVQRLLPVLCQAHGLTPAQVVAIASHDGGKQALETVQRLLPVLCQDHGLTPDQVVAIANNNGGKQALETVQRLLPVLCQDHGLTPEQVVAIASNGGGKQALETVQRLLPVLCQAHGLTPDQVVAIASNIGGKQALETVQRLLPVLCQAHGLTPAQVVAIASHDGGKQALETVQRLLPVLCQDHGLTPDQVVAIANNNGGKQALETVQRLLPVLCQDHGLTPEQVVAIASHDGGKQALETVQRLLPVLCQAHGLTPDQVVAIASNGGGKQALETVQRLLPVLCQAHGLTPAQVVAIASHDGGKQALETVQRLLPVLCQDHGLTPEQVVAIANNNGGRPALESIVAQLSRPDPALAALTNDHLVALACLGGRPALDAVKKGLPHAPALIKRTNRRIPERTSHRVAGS
Test: cell_activity
Conditions: tags: fusion to C-terminus of RVG-LAMP-2B-NLS, expressed from pcDNA3.0 in HEK-293

B1: gfaABC1D-NeuroD1 plasmid with TAL effector binding site (dsDNA)
DNA 1: TCGCTCGACGTACGCTCG
DNA 2: CGAGCGTACGTCGAGCGA
With B1 the binding signal was 3 fold.
